These results are taken from the nanobody polyreactivity screen of Harvey et al. (2022).

The nature of the series: yeast display, Sf9 membrane polyspecificity reagent, FACS + sequencing; frameworks hold sequencing errors. Put shortly: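 Synthetic nanobody libraries on Saccharomyces cerevisiae BJ5465 were galactose-induced for 36–48 hours, stained 1 hour at 4 °C with 10% biotinylated, detergent-solubilized Sf9 membrane reagent and enriched on streptavidin microbeads. FACS then separated cells into low and high (top ~1%) gates by anti-HA (expression) and streptavidin (reagent binding) fluorescence. Genes were colony-PCR amplified, MiSeq 2 × 250 sequenced and CDR-length filtered. A clone's polyreactivity label is that of its gate of origin.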
With “QVQLVESGGGLDQAGGSLRLICAASGGTSQRYVMGWYRQAPGKERELVAAITKSGVRTYYADSVKGRFTISRDNAKNKVYLQMNSLKPEDTAVYYCAAKTPTKDRGSDFDYWGQGTQVTVSS”, the “polyreactivity (PSR sort gate)” value is listed as “high polyreactivity”.

Take “QVQLEESGGGLVQAGGSLRLSCAASGSIFRSNAMGWYRQAPGKERELVAAISSSGGSTYYADSVKGRFTISRDKAKNTVYLQMNSLKPEDTAVYYCAARPSGRGYYLLGYWGQGTQVTVSS”: the “polyreactivity (PSR sort gate)” value is recorded as “low polyreactivity”.

In the case of “QVQLVESGGGLVQAGGSLRLSCAASGITFGDYAMVWYRQAPGKERELVAGINWSGDGTYYADSLKGRFTISRDKAKNTVYLQMNSLKPEDSAVYYCAAETFYDYGGYDYWGQGTQVTVSS”, the “polyreactivity (PSR sort gate)” value is “low polyreactivity”.

“QVQLVESGGGLVQAGGSLRLSCAASGRIFVFNAMGWYRQAPGKERELVAAITWSGGTTYYADSVKGRFTISRDNAKNTVYLQMNSLKPEDTAVYFCNAYLNRRMGYWGQGTQVTVSS”: the “polyreactivity (PSR sort gate)” value is “high polyreactivity”.

As for “QVQLVESGGGLVQAGGSLRLSCAASGGIFGLYTMGWYRQAPGKERELVAAISKTGGSTYYADSVKGRFTISRDNAKNTVYLQMNSLNPEDTAVYYCAADGPYDDYEYWGQGTQVTVSS”, the “polyreactivity (PSR sort gate)” value is reported as “high polyreactivity”.

Consider “QVQLVESGGGLVQAGGTLRLSCAASVSTIAQNAMGWYRQAPGKEREFVAAITGTVGSTYYADSVKGRFTISRDNAKNTVYLQMKSLKPEDTAVYYCNTRGFNGRVYPYDYWGQGTQVTVSS”, for which the “polyreactivity (PSR sort gate)” value is given as “low polyreactivity”.

For the sequence “QVQLVESGGGLVQAGGSLRLSCAASGSIFKKYAMGWYRQAPGKERELVAAISSVGGTYYADSVKGRFTISRDNAKNTVYLQMNSLKPEDTAVYYWYTDGYVGSIRSGLYIYDYWGQGTQVTVSS”, the “polyreactivity (PSR sort gate)” value is “low polyreactivity”.

With “QVQLVESGGGLVQAGGSLRLSCASSGSTLFPYAMGWYRQAPGKERELVAAISSRGGRTYYADSVKGRFTISRDNAKNTVYLQMNSLKPEDTAVYYCAAGDDYWGQGTQVTVSS”, the “polyreactivity (PSR sort gate)” value is listed as “high polyreactivity”.

With “QVQLVESGGGLVQAGGSLRLSCAASGFTFDVYTMGWYRQAPGKERELVASITYSGGDTYADSVKGRFTISRDNAKNTVYLQMNRLKPEDTAVYYCNAVVYYYLDEYWGQGTQVTVSS”, the “polyreactivity (PSR sort gate)” value is given as “high polyreactivity”.

With “QVQHVESGGGLVQAGGSLRLSCAASGSTFNSYDKGSYRQAPGKERELVAAISSSAASTYYADSVKGRFTISRDNAKKTGYLQMNSLKPEDTAVYYCAAYVYYTYPSCTVYSVSYIYDYWAQGTQVTVSS”, the “polyreactivity (PSR sort gate)” value is given as “low polyreactivity”.

Consider “QVQLVESGGGLVQAGGSLRLSCAASGFTFPRYAMGWYRQAPGKVRQLVAAISYRGGRTYYADSVKWRFTISRDNAKNTVFLQMNSLKPEDTAVYYCAADKTPSARYDYWGQGTQVTVSS”, for which the “polyreactivity (PSR sort gate)” value was “high polyreactivity”.

In the case of “QVQLVESGGGLVQAGGSLRLSCAASGRTFFPNAMGWYRQAPGKERELVASITSRGGGTYYADSVKGRFTISRDYAKNTVYLQMNSLKPEDTAVYYCADDRYYFSPGYNWWSEGYDYWGQGTQVTVSS”, the “polyreactivity (PSR sort gate)” value is “low polyreactivity”.

“QVQLVESGGGLVQAGGSLRLSCAASGRIFNYNAMGWYRQAPGKERELVAAITRSTGNTYYADSVKGRFTISRDNAKNTVYLQMNSLKPEDTAVYYCAAAYAYWRKYDYWGQGTQVTVSS”: the “polyreactivity (PSR sort gate)” value is “high polyreactivity”.

Turning to “QVQLVESGGGLVQAGGSLRLSCAASGSIFVYNAMGWYRQAPGKERELVAAIDTVGSTNYADSVKGRFTISRDNAKNTVYLQMNSLNPEDSAVYYCAVVTPYWSFYEQVIPSNYWGQGTQVSVSS”, the “polyreactivity (PSR sort gate)” value is given as “low polyreactivity”.

For “QVQLVESGGGLVQAGGSLRLSCAASGLIFKYNAMGWYRQAPGKERELVAAITWSGGITYADSVKGRFTISRDNAKNTVYLQMNSLKPEDTAVYYCAARGYWQPRPRRRYDYWGQGTQVTVSS”, the “polyreactivity (PSR sort gate)” value is recorded as “high polyreactivity”.

Take “QVQLVESCGGLVQAGGSLRLSCAASGGTFGPNAMGWYRQAPGKERELVARISTSGGSTTYYADSVKGRFTISRDNAKNTFYLHMNSLKPEDTAVYYCAADYKPYYRRRYDYWGQGTQVTVSS”: the “polyreactivity (PSR sort gate)” value is “low polyreactivity”.

“QVQLVESGGGLVQAGGSLRLSCAASGIILPVYAMGWYRPAPGKERELVAAIRWSSGRTYYADSVKGRFTISRDNAKNTVYLQMNSLKPEDTAVYYCAAYPSSEYDYWGQGTQVTVSS”: the “polyreactivity (PSR sort gate)” value is “low polyreactivity”.

As to “QVQLVESGGGLVHAGGSLRLSCAASGYIFTRNMGWYRQAPGKERELVAAITWSGGSTYYADSVKGRFTISRDNAKNTVYLQINSLKPEDTAVYYCAADYGWSVGRRYYYWGQGTQVTVSS”, the “polyreactivity (PSR sort gate)” value was “high polyreactivity”.

Take “QDQLVESGGGLVQAGGSLRLSCAASGFTFQYYAMGWYRQAPGKERELVAAISRRGGRTDYADSVKGRFTISRDNAKNTVYLQINSLKPEDTEVYYCARDPGAFEYSGQGTQVTVSS”: the “polyreactivity (PSR sort gate)” value is “high polyreactivity”.

On to “QVQLVESGGGIVQAGGSLRLSSAASGSTFYTKSIGWYIQAPGKERELVAAISGSGGSTYYADSVKGRFTISRDTAKNTVYLQMISLKPEDTAVYSCAARSRYYDTRFDYWGQGTQVTVSS”, for which the “polyreactivity (PSR sort gate)” value is on record as “low polyreactivity”.

As for “QVQLVESGGGLVQAGGSLRLSCAASGSIFVYNAMGWYRQAPGKERELVARITGRGGRTYYADSVKGRFTISRDNAKNTVYLQMNSLKPEDTAVYYCAAAKYGDYRGSPYKYGYWGQGTQVTVSS”, the “polyreactivity (PSR sort gate)” value was “high polyreactivity”.

“QVQLVESGGGLVQAGGSLRLSCAASGSTFGKYVMGWYRQAPGKERELVAAISRSGGSTYYADSVKGRFTISRDNAKNTVYFQMNSLKPEDTAVYYCATVGYGYDYWGQGTQVTVSS”: the “polyreactivity (PSR sort gate)” value was “high polyreactivity”.

Regarding “QVHLVESGGGLVQAGGSLRLSCAASGIIFPWTAMGWYRQAPGKERELVAAITSRGSNTYYADSVKGRFTISRDNAKNTVYLQMNSLKPEDTAVYYCAVDSFYYGKYGYWGQGSQVTVSS”, the “polyreactivity (PSR sort gate)” value is listed as “high polyreactivity”.

Consider “QVQLVESGGGLVQAGGSLRLSCAASGYTFGDYAMGWYRQAPGKERELVASITQTGGSTYADSVKGRFTISRDNAKNTVYLQMNSLKPEDTAVYYCNARYPWWESLRQTDRGKGFDYWGQGTQVTVSS”, for which the “polyreactivity (PSR sort gate)” value is “low polyreactivity”.

Regarding “QDQLGESGGGLVQAGGSLRLICAASGRIFPYYAMAWYRQAAGKEREFVASITKRRGSTSYADSVKGRFTISRDNAKNTVYLQMHSLKPEDTAVYYCAARRGSGMVTYYGGDYWGQGTQVTVSS”, the “polyreactivity (PSR sort gate)” value is recorded as “low polyreactivity”.

Regarding “QVHLVESGGGLVQAGGSLRLSCAASGSTFRRYARAWYRQAPGKERELVAAITWRGGSTYYADSVKGRFTISRDNAKNTVYLQMNSLKPEDNAVYYCAADRYPYQYNYWGQGTLVTVSS”, the “polyreactivity (PSR sort gate)” value is given as “high polyreactivity”.

As for “QVQLVESGGGLVQAGGSLRLSCAASGSILNIYTMGWYRQAPGTERELVAAITSGDITYYADSVKGLFTISRDNAKNTVYLQMISLKPEDTAVYYCAADASSQINEWLSYGEGYNYWGQGTQVTVSS”, the “polyreactivity (PSR sort gate)” value is listed as “low polyreactivity”.

As for “QVQLVESGGGLVQAGGSLRLSCAASGFTFNPNAMGWYRQAPGKERELVAPITRSGGSTYYADSVKGRFTISRDNAKNTVYLQMNSLKPEDTAVYYCNAPFRVSTTRRRYPGIDSHYYWGQGTQVTVSS”, the “polyreactivity (PSR sort gate)” value was “high polyreactivity”.

Turning to “QVQLVESGGGLVQAGGSLRFSCAASGFTFSDYAMGWYRQAPGKEREFVAAITRRGGSTYYADSVKGRFTISRDNAKNTVYLQMNSLKPEDTAVYYCAKRGLRSYSFPLWQGYDYWGQGTQVTVSS”, the “polyreactivity (PSR sort gate)” value is “high polyreactivity”.

“QVQLVESVGGLVQAGGSLRLSCPASGSTFTDYAMGWYRQAPGKERELVAANSWSGGSTYYADSVKGRFTISRDNAKNTVYLQMNSLKPEDTAVYYCAFRYHGYDYWGQGTQVTVSS”: the “polyreactivity (PSR sort gate)” value is given as “high polyreactivity”.
